From PMC4188072, “Structure of a short-chain dehydrogenase/reductase (SDR) within a genomic island from a clinical strain of Acinetobacter baumannii” (Acta Crystallographica. Section F, Structural Biology …, 2014)

Target: the molecule itself
Test: SEC; Superdex G200 10/300 column, 50 mM HEPES buffer pH 7.5, 300 mM NaCl, 5% (v/v) glycerol; native mass 120 kDa against a 30 kDa band on SDS-PAGE

B1: SDR-WM99c short-chain dehydrogenase/reductase from Acinetobacter baumannii WM99c (enzyme, A. baumannii (strain WM99c))
chain: MNIFDVKDKYILITGASSGLGHHIAELFAKEGANIVICARRLERLKELESHIKNEYGVQVYTFALDVNDRSAVKDMLSSLEAEGVTIDVLINNAGVSDTKRFLDYNDEDWDKIVDTNLKAPWQCAQEVVQHMIKAERKGSIINITSILSQSTNLGVSPYCASKAGLRHLTEVMAVELARFGINVNAIAPGYMITEINEEYLTSEVGQQLLKKIPTRKFVEFDDLNGPLLLLASQAGQGITGIEIKVDGGHSAAPI
modifications: selenomethionine (cells grown in selenomethionine medium; Se sites located in the crystal)
notes: SDR-WM99c, hypothetical protein encoded in genomic island GI_12 of A. baumannii strain WM99c; total chain length 255 residues; also called SDR-WM99c dehydrogenase; source: E. coli BL21 (DE3) pLysS, grown in selenomethionine medium, purified (Ni-NTA); not shown: His6, N-terminal, kept
stoichiometry N: 4
